These are literature values, as cited in publication PMC2903477.

The data set addresses TrkB (Homo sapiens) (UniProt Q16620).
Chain of UniProt Q16620 (Q16620 32-430): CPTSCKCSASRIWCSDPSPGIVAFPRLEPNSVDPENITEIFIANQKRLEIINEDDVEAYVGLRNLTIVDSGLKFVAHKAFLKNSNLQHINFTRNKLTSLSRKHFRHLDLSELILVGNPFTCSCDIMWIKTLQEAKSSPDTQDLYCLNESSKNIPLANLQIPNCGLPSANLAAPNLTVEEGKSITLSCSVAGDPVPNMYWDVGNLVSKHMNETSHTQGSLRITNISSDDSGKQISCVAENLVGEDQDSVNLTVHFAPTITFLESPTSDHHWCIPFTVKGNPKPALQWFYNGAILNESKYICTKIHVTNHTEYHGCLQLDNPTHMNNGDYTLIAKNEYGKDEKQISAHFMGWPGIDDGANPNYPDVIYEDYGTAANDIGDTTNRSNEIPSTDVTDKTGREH

As to BDNF (from UniProt P23560), the Kd (as a rule, a measure of binding affinity in units of concentration) is 0.1 nM.
